Test results from patent publication US20160017016A1 (AstraZeneca / MedImmune, published 2016).
*1 amine or outer side, *2 acyl side, *3 side chain or, on linkers, in order; H or OH if unused. Primed or numbered codes have the meaning given here. Where no end group is shown, it is not given here. Side-chain parts run from the residue outwards. [ ]: non-standard residue; d: D form. The star is where a group is joined. PEG4′ = 4 PEG units (K(PEGxpalm): Lys with x PEG units and palmitoyl at epsilon N, C-terminal (PEG)4); γGlu = O=C(O)[C@H](CCC(=O)[*:2])N[*:1]; Palmitoyl = CCCCCCCCCCCCCCCC(=O)*; Aib = CC(C)(N)C(=O)O; PEG2′ = 2 PEG units

Columns and labels:
[1] = target: human GLP-1 receptor (GLP-1R) (human, UniProt P43220 24-463); assay: cell-based or functional assay
[2] = target: human glucagon receptor (GCGR) (human, UniProt P47871 26-477); assay: cell-based or functional assay
human glucagon receptor (GCGR), sequence (P47871 26-477): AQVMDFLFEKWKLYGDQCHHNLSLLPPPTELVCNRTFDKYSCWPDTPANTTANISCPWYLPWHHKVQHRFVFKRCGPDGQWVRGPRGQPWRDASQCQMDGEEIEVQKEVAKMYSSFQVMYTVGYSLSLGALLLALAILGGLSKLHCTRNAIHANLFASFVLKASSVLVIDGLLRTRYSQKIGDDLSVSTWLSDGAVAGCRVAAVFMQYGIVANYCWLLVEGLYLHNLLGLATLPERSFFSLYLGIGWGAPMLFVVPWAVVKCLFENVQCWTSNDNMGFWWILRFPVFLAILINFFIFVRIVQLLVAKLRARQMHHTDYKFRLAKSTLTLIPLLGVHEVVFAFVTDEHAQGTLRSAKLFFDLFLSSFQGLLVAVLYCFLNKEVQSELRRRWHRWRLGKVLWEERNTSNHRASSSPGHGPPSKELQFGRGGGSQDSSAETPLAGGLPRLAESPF

Binder	cAMP activity, GLP1 EC50 nM [1]	cAMP activity, Glcg EC50 nM [2]
HSQGTFTSDYSXYLDSRRAQDFVQWLV (K(gE-palm) at 12; C-terminal PEG4) [g416]	1 nM	0.6 nM
HGQGTFTSDYSKYLDSXRAQDFVQWLV (K(gE-palm) at 17; C-terminal PEG2) [g691]	0.05 nM	
HGQGTFTSDYSKYLDSXRAQDFVQWLV (K(gE-palm) at 17; C-terminal PEG3) [g690]	0.06 nM	0.1 nM
HGQGTFTSDYSKYLDSXRAQDFVQWLV (K(gE-palm) at 17; C-terminal PEG6) [g692]	0.06 nM	
HSQGTFTSDYSKYLDEK([γGlu-Palmitoyl])RAQDFVQWLV[PEG4′] [g810]	0.5 nM	0.03 nM
HSQGTFTSDYSKYLDSRKRAQDFVQWLV[PEG4′] (not fully specified (residue 18); printed as HSQGTFTSDYSKYLDSRB1RAQDFVQWLVZ4) [g415]	0.007 nM	0.002 nM
HGQGTFTSDYSKYLDSXRAQDFVQWLV (not fully specified; K(PEG4-palm) at 17; C-terminal PEG4) [g431]	0.006 nM	0.004 nM
HXQGTFTSDYSKYLDSXRAQDFVQWLV (alpha-amino-iso-butyric acid (Aib) at 2; K(PEG4-palm) at 17; C-terminal PEG4) [g501]	0.03 nM	0.003 nM
HSEGTFTSDYSKYLDSKRAQDFVQWLV[PEG4′] (not fully specified (residue 17); printed as HSEGTFTSDYSKYLDSB1RAQDFVQWLVZ4) [g433]	0.004 nM	0.03 nM
HGQGTFTSDYSKYLESK([PEG4′-Palmitoyl])RAQDFVQWLV[PEG4′] [g499]	0.02 nM	0.03 nM
HSQGTFTSDYSKYLDSXRAQDFVQWLE (not fully specified; K(PEG2-PEG2-gE-palm) at 17; C-terminal PEG4) [g966]		0.001 nM
HSQGTFTSDYSKYLDSXRAQDFVQWLV (not fully specified; K(PEG2-gE-palm) at 17; C-terminal PEG4) [g965]		0.002 nM
HSQGTFTSDYSKYLDSXRAQDFVQWLV (not fully specified; K(PEG4-gE-palm) at 17; C-terminal PEG4) [g964]		0.002 nM
H[Aib]QGTFTSDYSKYLDSK([PEG4′-γGlu-Palmitoyl])RARDFVAWLV[PEG4′] [g968]		0.006 nM
HSQGTFTSDYSKYLDSXRAQDFVQWLV (K(PEG3-palm) at 17; C-terminal PEG4) [g434]	0.005 nM	0.02 nM
HSQGTFTSDYSKYLDSXRAQDFVQWLV (not fully specified; K(PEG2-palm) at 17; C-terminal PEG4) [g435]	0.01 nM	0.002 nM
HSQGTFTSDYSKYK([γGlu-Palmitoyl])DEERAQDFVQWLV[PEG4′] [g807]		0.01 nM
HSQGTFTSDYSKYLDSXRAQDFVQWLV (not fully specified; K(PEG4-palm) at 17; C-terminal PEG2) [g437]	0.006 nM	0.002 nM
HSQGTFTSDYSKYLDSXRAQDFVQWLV (not fully specified; K(PEG4-palm) at 17; C-terminal PEG3) [g436]	0.01 nM	0.002 nM
HSQGTFTSDYSKYLDSXRAQDFVQWLV (not fully specified; K(PEG4-palm) at 17; C-terminal PEG6) [g438]	0.005 nM	0.002 nM
HSQGTFTSDYSKYLDSXRAQDFVQWLV (not fully specified; K(PEG4-palm) at 17; C-terminal PEG8) [g439]	0.008 nM	0.002 nM
HSQGTFTSDYSKYLDSXRAQDFVQWLV (not fully specified; K(PEG4-palm) at 17; C-terminal PEG12) [g440]	0.008 nM	0.002 nM
HGQGTFTSDYSKYLDSXRAQDFVQWLE (K(gE-palm) at 17; C-terminal PEG4) [g516]	0.6 nM	0.08 nM
HSQGTFTSDYSKYLDSKRAQDFVQWLEA (K(gE-palm) at 17 (printed as B); C-terminal PEG2) [g533]	0.09 nM	0.003 nM
HSQGTFTSDYSKYLDSK([γGlu-Palmitoyl])RAQDFVQWEV[PEG4′] [g458]		9 nM

Binder	cAMP activity, GLP1 EC50 nM [1]	cAMP activity, Glcg EC50 nM [2]
HSQGTFTSDYSKYLDK([PEG4′-Palmitoyl])RRAQDFVQWEV[PEG4′] [g497]		0.3 nM
HSQGTFTSDYSKYLDSK([PEG4′-Palmitoyl])RAQDFVQWEV[PEG4′] [g459]		0.3 nM
HSQGTFTSDYSKYLDSK([PEG4′-γGlu-Palmitoyl])RARDFVAWLE[PEG2′] [g967]		0.006 nM
HSQGTFTSDYSKYLDSRKAQDFVQWLE[PEG4′] (not fully specified (residue 18); printed as HSQGTFTSDYSKYLDSRB1AQDFVQWLEZ4) [g455]		0.001 nM
H[Aib]QGTFTSDYSKYK([γGlu-Palmitoyl])DSERARDFVAWLV[PEG4′] [g868]		0.02 nM
HSQGTFTSDYSKYK([γGlu-Palmitoyl])DSRRAQDFVQWLV[PEG4′] [g426]		0.003 nM
HSQGTFTSDYSKYLDK([γGlu-Palmitoyl])RRAQDFVQWEV[PEG4′] [g496]	8 nM	
HSQGTFTSDYSKYLDSRRAXDFVQWLV (K(gE-palm) at 20; C-terminal PEG4) [g456]		0.07 nM
HSQGTFTSDYSKYLDSRRAQXFVQWLV (K(gE-palm) at 21; C-terminal PEG4) [g808]	50 nM	
HSQGTFTSDYSKYLDSRAAQK([γGlu-Palmitoyl])FVQWLV[PEG4′] [g809]		0.07 nM
HSQGTFTSDK([PEG4′-Palmitoyl])SKYLDSSRARDFVAWLV[PEG4′] [g971]		0.007 nM
HSQGTFTSDYSKK([PEG4′-Palmitoyl])LDSSRARDFVAWLV[PEG4′] [g970]		0.003 nM
HSQGTFTSDYSKYLDSXRAQDFVQWLV (K(gE-palm) at 17; C-terminal PEG4) [g414]	0.2 nM	
HSQGTFTSDYSEYLDSK([γGlu-Palmitoyl])RAQDFVQWLV[PEG4′] [g676]		40 nM
HGQGTFTSDYSEYLDSK([γGlu-Palmitoyl])RARDFVEWLV[PEG4′] [g677]	0.3 nM	
HSQGTFTSDYSKYLDSRRAQDFVQWLV (C-terminal PEG2) [g355]		0.03 nM
HXQGTFTSDYSKYLDSXRAQDFVQWLV (alpha-amino-iso-butyric acid (Aib) at 2; K(gE-palm) at 17; C-terminal PEG4) [g500]	0.08 nM	
HGQGTFTSDYSKYLDSXRAQDFVQWLV (K(gE-palm) at 17; C-terminal PEG4) [g430]		0.8 nM
HSQGTFTSDYSEYLDSK([γGlu-Palmitoyl])RAADFVQWLV[PEG4′] (not fully specified; printed as HSQGTFTSDYSEYLDSBRAADFVQWLVZ4) [g775]		0.08 nM
HGQGTFTSDYSRYLDSK([γGlu-Palmitoyl])RARDFVEWLV[PEG4′] [g719]	0.09 nM	
HSQGTFTSDYSKYLDSRRAQDFVQWLV (C-terminal PEG4) [g356]	0.05 nM	
HSQGTFTSDYSEYLDSK([γGlu-Palmitoyl])RARDFVAWLV[PEG4′] [g784]	0.3 nM	
HSQGTFTSDYSKYLDSK([γGlu-Palmitoyl])RARDFVAWLV[PEG4′] [g800]	0.09 nM	
H[Aib]QGTFTSDYSKYLDSK([γGlu-Palmitoyl])RAQDFVAWLV[PEG4′] [g870]	0.09 nM	
HSEGTFTSDYSKYLDSK([γGlu-Palmitoyl])RAQDFVQWLV[PEG4′] [g432]	0.07 nM	
